For 2 molecules, IC50 and Ki results are on record in article PMC3717276, “Optimization and validation of mitochondria-based functional assay as a useful tool to identify BH3-like molecules selectively targeting anti-apoptotic Bcl-2 proteins” (BMC Biotechnology, 2013).

The target in assay [1] is Human Bcl-2 protein (isoform 2 construct), N-terminal 6xHis tagged recombinant protein (human). Briefly: SPR; competitive solution binding: protein (20 nM) pre-incubated with tested BH3 peptide for at least 30 min, injected over immobilised biotin-Bim BH3 peptide; response at 30 s of dissociation.
The target is the same in assay [2]. Briefly: fluorescence polarisation; competition: Mcl-1 (20 nM) or Bcl-2 (40 nM) pre-incubated with FAM-Bid (2 nM and 2.5 nM), tested BH3 peptide added, 2-3 h; 100 mM potassium phosphate, pH 7.5, 100 ug/ml bovine gamma globulin, 0.02% sodium azide; Ki calculated from IC50.

One may read the IC50 as the concentration at which inhibition is half-maximal. In general, Ki refers to a dissociation constant, usually derived from enzyme kinetics or from competition with a known ligand. NLWAAQRYGRELRRMSDEFVDSFKKG [Bad BH3 peptide (residues 103-128)]: the IC50 in assay [1] stood at 4.37 nM. In addition, in assay [2], the Ki was 7.1 nM.
On the same counts, the results for PAELEVECATQLRRFGDKLNFRQKLL [Noxa BH3 peptide (residues 18-43)] are more than 30000 nM and more than 10000 nM.
